Laboratory results as given in US20120263722A1 (AbbVie / Abbott, published 2012).

T1: CD-19 on the cell surface (human, UniProt P15391 20-556)
T1 construct: whole, on cells
T1 sequence (looked up): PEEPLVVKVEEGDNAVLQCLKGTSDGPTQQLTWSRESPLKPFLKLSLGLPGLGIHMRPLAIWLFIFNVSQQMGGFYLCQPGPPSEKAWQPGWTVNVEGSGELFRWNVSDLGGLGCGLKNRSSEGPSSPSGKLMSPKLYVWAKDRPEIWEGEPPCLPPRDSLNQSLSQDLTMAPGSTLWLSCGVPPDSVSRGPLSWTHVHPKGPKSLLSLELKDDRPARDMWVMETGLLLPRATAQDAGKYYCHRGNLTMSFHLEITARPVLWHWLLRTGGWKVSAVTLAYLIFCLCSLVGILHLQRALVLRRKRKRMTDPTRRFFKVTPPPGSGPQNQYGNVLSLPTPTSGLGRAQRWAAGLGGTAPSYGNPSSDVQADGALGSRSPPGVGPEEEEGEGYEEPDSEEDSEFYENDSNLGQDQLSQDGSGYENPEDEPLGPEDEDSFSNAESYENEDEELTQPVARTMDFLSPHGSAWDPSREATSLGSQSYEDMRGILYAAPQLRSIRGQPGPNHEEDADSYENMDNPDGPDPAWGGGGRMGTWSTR

T2: CD-80 on the cell surface (human, UniProt P33681 35-288)
T2 construct: whole, on cells
T2 sequence (looked up): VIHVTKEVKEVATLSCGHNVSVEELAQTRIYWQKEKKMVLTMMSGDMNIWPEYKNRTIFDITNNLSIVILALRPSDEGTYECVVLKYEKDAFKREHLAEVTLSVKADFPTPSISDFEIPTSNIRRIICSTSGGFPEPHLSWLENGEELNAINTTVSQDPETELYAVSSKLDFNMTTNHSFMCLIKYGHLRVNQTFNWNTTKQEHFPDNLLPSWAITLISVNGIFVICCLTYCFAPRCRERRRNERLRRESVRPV

B1: AB008 (antibody, V domains shown)
VH: QVQLVQSGAEVKKPGSSVKVSCKASGYTFTSYWLHWVRQAPGQGLEWIGYINPRNDYTEYNQNFKDKATITADESTNTAYMELSSLRSEDTAFYFCARRDITTFYWGQGTTVTVSS
VL: DIQLTQSPSSLSASVGDRVTMSCKSSQSVLYSANHKNYLAWYQQKPGKAPKLLIYWASTRESGVPSRFSGSGSGTDFTFTISSLQPEDIATYYCHQYLSSWTFGGGTKLEIKR
notes: Parent antibody; also called AB008VH; AB008VL
B2: DVD1879 (bispecific antibody, human IgG1, kappa)
heavy: not shown
light: DILLTQTPASLAVSLGQRATISCKASQSVDYDGDSYLNWYQQIPGQPPKLLIYDASNLVSGIPPRFSGSGSGTDFTLNIHPVEKVDAATYHCQQSTEDPWTFGGGTKLEIKRTVAAPQIVLIQSPAIMSASPGEKVTMTCSASSSVSYMYWYQQKPGSSPRLLIYDTSNLASGVPVRFSGSGSGTSYSLTISRMEAEDAATYYCQQWSGYPYTFGGGTKLEIKRTVAAPSVFIFPPSDEQLKSGTASVVCLLNNFYPREAKVQWKVDNALQSGNSQESVTEQDSKDSTYSLSSTLTLSKADYEKHKVYACEVTHQGLSSPVTKSFNRGEC
notes: Outer domain anti-CD19 (AB006), inner domain anti-IL-6 (AB040); also called DVD1879H; DVD1879L
B3: AB006 (antibody, V domains shown)
VH: QVQLQQSGAELVRPGSSVKISCKASGYAFSSYWMNWVKQRPGQGLEWIGQIWPGDGDTNYNGKFKGKATLTADESSSTAYMQLSSLASEDSAVYFCARRETTTVGRYYYAMDYWGQGTSVTVSS
VL: DILLTQTPASLAVSLGQRATISCKASQSVDYDGDSYLNWYQQIPGQPPKLLIYDASNLVSGIPPRFSGSGSGTDFTLNIHPVEKVDAATYHCQQSTEDPWTFGGGTKLEIKR
notes: Parent antibody; also called AB006VH; AB006VL
B4: AB007 (antibody, V domains shown)
VH: QVQLQESGPGLVKPSETLSLTCAVSGGSISGGYGWGWIRQPPGKGLEWIGSFYSSSGNTYYNPSLKSQVTISTDTSKNQFSLKLNSMTAADTAVYYCVRDRLFSVVGMVYNNWFDVWGPGVLVTVSS
VL: ESALTQPPSVSGAPGQKVTISCTGSTSNIGGYDLHWYQQLPGTAPKLLIYDINKRPSGISDRFSGSKSGTAASLAITGLQTEDEADYYCQSYDSSLNAQVFGGGTRLTVLG
notes: Parent antibody; also called AB007VH; AB007VL
B5: DVD1883 (bispecific antibody, human IgG1, kappa)
heavy: not shown
light: DIQLTQSPSSLSASVGDRVTMSCKSSQSVLYSANHKNYLAWYQQKPGKAPKLLIYWASTRESGVPSRFSGSGSGTDFTFTISSLQPEDIATYYCHQYLSSWTFGGGTKLEIKRTVAAPQIVLIQSPAIMSASPGEKVTMTCSASSSVSYMYWYQQKPGSSPRLLIYDTSNLASGVPVRFSGSGSGTSYSLTISRMEAEDAATYYCQQWSGYPYTFGGGTKLEIKRTVAAPSVFIFPPSDEQLKSGTASVVCLLNNFYPREAKVQWKVDNALQSGNSQESVTEQDSKDSTYSLSSTLTLSKADYEKHKVYACEVTHQGLSSPVTKSFNRGEC
notes: Outer domain anti-CD22 (AB008), inner domain anti-IL-6 (AB040); also called DVD1883H; DVD1883L
B6: DVD1881 (bispecific antibody, human IgG1, kappa)
heavy: not shown
light: ESALTQPPSVSGAPGQKVTISCTGSTSNIGGYDLHWYQQLPGTAPKLLIYDINKRPSGISDRFSGSKSGTAASLAITGLQTEDEADYYCQSYDSSLNAQVFGGGTRLTVLGQPKAAPQIVLIQSPAIMSASPGEKVTMTCSASSSVSYMYWYQQKPGSSPRLLIYDTSNLASGVPVRFSGSGSGTSYSLTISRMEAEDAATYYCQQWSGYPYTFGGGTKLEIKRTVAAPSVFIFPPSDEQLKSGTASVVCLLNNFYPREAKVQWKVDNALQSGNSQESVTEQDSKDSTYSLSSTLTLSKADYEKHKVYACEVTHQGLSSPVTKSFNRGEC
notes: Outer domain anti-CD80 (AB007), inner domain anti-IL-6 (AB040); also called DVD1881H; DVD1881L

Legend:
Assay in all cases: flow cytometry on cells carrying the target, antibody or DVD-Ig at 2 ug/mL
[1] = target: T3, CD-22 on the cell surface (human, UniProt P20273 20-847)
T3 construct: whole, on cells
Protocol: (§1) Binding of monoclonal antibodies to the surface of human tumor cell fines was assessed by flow cytometry. For example, stable cell lines overexpressing a cell-surface antigen of interest or human tumor cell lines were harvested from tissue culture flasks and resuspended in phosphate buffered saline (PBS) containing 5% fetal bovine serum (PBS/FBS). Prior to staining, human tumor cells were incubated on ice with (100 μl) human IgG at 5 μg/ml in PBS/FCS. 1-5×10⁵ cells were incubated with antibody or DVD-Ig (2 μg/mL) in PBS/FBS for 30-60 minutes on ice. […] After 30 minutes incubation on ice, cells were washed twice and resuspended in PBS/PBS. Fluorescence was measured using a Becton Dickinson FACSCalibur (Becton Dickinson, San Jose, Calif.).
(§2) The geometric mean is the n root of the multiplication product of n fluorescent signals (a1×a2×a3 . . . an). With log-transformed data the geometric mean is used to normalize the weighting of the data distribution.

[2] = target: T1, CD-19 on the cell surface
Protocol: as §1, §2

[3] = target: T2, CD-80 on the cell surface
Protocol: as §1, §2

Row | Binder | N-Terminal VD GEO MEAN (FACS geometric mean) [1] | N-Terminal VD GEO MEAN (FACS geometric mean) [2] | N-Terminal VD GEO MEAN (FACS geometric mean) [3]
1 | B1 | 256 | – | –
2 | B2 | – | 1930 | –
3 | B3 | – | 1570 | –
4 | B4 | – | – | 82.5
5 | B5 | 223 | – | –
6 | B6 | – | – | 134
